This note sets out measurements from patent US20020150888A1 (published 2002).

Read-outs that look alike come from different tables or passages of the source.

The chains are these.
B2: FLAG-tagged 88C receptor (receptor)
chain: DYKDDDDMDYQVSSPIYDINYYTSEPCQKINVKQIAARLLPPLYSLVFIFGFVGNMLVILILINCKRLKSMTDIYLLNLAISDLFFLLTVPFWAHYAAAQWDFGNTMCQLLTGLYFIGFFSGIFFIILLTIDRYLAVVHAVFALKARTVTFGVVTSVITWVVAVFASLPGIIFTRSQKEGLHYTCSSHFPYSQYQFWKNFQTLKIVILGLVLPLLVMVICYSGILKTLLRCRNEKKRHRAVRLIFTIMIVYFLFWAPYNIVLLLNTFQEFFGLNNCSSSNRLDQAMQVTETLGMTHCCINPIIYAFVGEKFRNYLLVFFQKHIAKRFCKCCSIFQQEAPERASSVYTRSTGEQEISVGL
B3: MIP-1β (ligand, UniProt P13236 24-92, looked up)
chain: APMGSDPPTACCFSYTARKLPRNFVVDYYETSSLCSQPAVVFQTKRSKQVCADPSESWVQEYVYDLELN
notes: also called MIP-1p

Experiment [1] concerns the target FLAG-tagged 88C receptor (human). As to the kind of experiment: competition of unlabelled ligand with 1.5 nM 125I-MIP-1β on HEK-293 cells transfected with FLAG-tagged 88C.
The target is the same in experiment [2]. As to the kind of experiment: cell-based or functional assay.
Experiment [3] deals with B2. Put plainly: competition of unlabelled ligand with 1.5 nM 125I-MIP-1β on HEK-293 cells transfected with FLAG-tagged 88C.
Experiment [4] has as its target B2. Put plainly: cell-based or functional assay.
Experiment [5] deals with B3. As to the kind of experiment: equilibrium binding of 125I-MIP-1β to HEK-293 cells transfected with FLAG-tagged 88C, Scatchard analysis.

As to “MIP-1α (from UniProt P10147 24-92) (ligand)”, in experiment [1], the 50% inhibitory concentration (IC50) is 7.4 nM. The same molecule returned an EC50 of inositol phosphate formation (phospholipase C assay, COS-7 cells co-transfected with Gqi5) in experiment [2] of 22 nM.

B1: RANTES (ligand, UniProt P13501 24-91, looked up)
chain: SPYSSDTTPCCFAYIARPLPRAHIKEYFYTSGKCSNPAVVFVTRKNRQVCANPEKKWVREYINSLEMS
As to B1, the IC50 in experiment [3] stood at 6.9 nM. Moreover, the “EC50 of inositol phosphate formation (phospholipase C assay, COS-7 cells co-transfected with Gqi5)” value in experiment [4] was 1 nM.

In turn, B2 returned a Kd in experiment [5] of 1.6 nM. This lies in the single-digit nanomolar range.

For B3, the IC50 in experiment [3] amounted to 7.4 nM. Moreover, the “EC50 of inositol phosphate formation (phospholipase C assay, COS-7 cells co-transfected with Gqi5)” value in experiment [4] worked out at 6 nM.
